Assay results published in US20140271457A1 (AbbVie / Abbott, published 2014).

Molecular target: Recombinant Human TNF-α/TNFSF1A (human, UniProt P01375 77-233)
Assay: cell-based or functional assay

Chain of Recombinant Human TNF-α/TNFSF1A (P01375 77-233 limits assumed): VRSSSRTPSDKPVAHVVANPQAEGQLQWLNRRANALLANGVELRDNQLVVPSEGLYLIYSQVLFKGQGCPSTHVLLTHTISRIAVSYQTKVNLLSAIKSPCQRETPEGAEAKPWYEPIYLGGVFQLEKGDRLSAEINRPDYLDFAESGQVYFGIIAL

| C-Terminal VD huTNFα Neutralization Assay IC50 [pM] | N-Terminal VD huTNFα Neutralization Assay IC50 [pM] | Binder |
| --- | --- | --- |
| 384 | – | DVD2752 (bispecific antibody, IgG1) VH: EVQLVQSGAEVKKPGASVKVSCKASGYTFTKYWLGWVRQAPGQGLEWMGDIYPGYDYTHYNEKFKDRVTLTTDTSTSTAYMELRSLRSDDTAVYYCARSDGSSTYWGQGTLVTVSSASTKGPSVFPLAPEVQLVESGGGLVQPGGSLRLSCAASGFTFSNYGVEWVRQAPGKGLEWVSGIWADGSTHYADTVKSRFTISRDNSKNTLYLQMNSLRAEDTAVYYCAREWQHGPVAYWGQGTLVTVSS VL: DVLMTQTPLSLPVTPGEPASISCTSSQNIVHSNGNTYLEWYLQKPGQSPQLLIYKVSNRFSGVPDRFSGSGSGTDFTLKISRVEAEDVGVYYCFQVSHVPYTFGGGTKVEIKRTVAAPDIQMTQSPSSLSASVGDRVTITCKASQLVSSAVAWYQQKPGKAPKLLIYWASTLHTGVPSRFSGSGSGTDFTLTISSLQPEDFATYYCQQHYRTPFTFGQGTKLEIKR |
| 381 | – | DVD2798 (bispecific antibody, IgG1) VH: EVQLVQSGAEVKKPGASVKVSCKASGYTFTKYWLGWVRQAPGQGLEWMGDIYPGYDYTHYNEKFKDRVTLTTDTSTSTAYMELRSLRSDDTAVYYCARSDGSSTYWGQGTLVTVSSGGGGSGGGGSEVQLVQSGAEVKKPGASVKVSCKASGYTFANYGIIWVRQAPGQGLEWMGWINTYTGKPTYAQKFQGRVTMTTDTSTSTAYMELSSLRSEDTAVYYCARKLFTTMDVTDNAMDYWGQGTTVTVSS VL: DVLMTQTPLSLPVTPGEPASISCTSSQNIVHSNGNTYLEWYLQKPGQSPQLLIYKVSNRFSGVPDRFSGSGSGTDFTLKISRVEAEDVGVYYCFQVSHVPYTFGGGTKVEIKRGGSGGGGSGDIQMTQSPSSLSASVGDRVTITCRASQDISQYLNWYQQKPGKAPKLLIYYTSRLQSGVPSRFSGSGSGTDFTLTISSLQPEDFATYFCQQGNTWPPTFGQGTKLEIKR |
| – | 3 | DVD2794 (bispecific antibody, IgG1) VH: EVQLVQSGAEVKKPGASVKVSCKASGYTFANYGIIWVRQAPGQGLEWMGWINTYTGKPTYAQKFQGRVTMTTDTSTSTAYMELSSLRSEDTAVYYCARKLFTTMDVTDNAMDYWGQGTTVTVSSASTKGPEVQLVQSGAEVKKPGASVKVSCKASGYTFTKYWLGWVRQAPGQGLEWMGDIYPGYDYTHYNEKFKDRVTLTTDTSTSTAYMELRSLRSDDTAVYYCARSDGSSTYWGQGTLVTVSS VL: DIQMTQSPSSLSASVGDRVTITCRASQDISQYLNWYQQKPGKAPKLLIYYTSRLQSGVPSRFSGSGSGTDFTLTISSLQPEDFATYFCQQGNTWPPTFGQGTKLEIKRTVAAPDVLMTQTPLSLPVTPGEPASISCTSSQNIVHSNGNTYLEWYLQKPGQSPQLLIYKVSNRFSGVPDRFSGSGSGTDFTLKISRVEAEDVGVYYCFQVSHVPYTFGGGTKVEIKR |
| – | 10 | DVD2796 (bispecific antibody, IgG1) VH: EVQLVQSGAEVKKPGASVKVSCKASGYTFANYGIIWVRQAPGQGLEWMGWINTYTGKPTYAQKFQGRVTMTTDTSTSTAYMELSSLRSEDTAVYYCARKLFTTMDVTDNAMDYWGQGTTVTVSSASTKGPEVQLVQSGAEVKKPGASVKVSCKASGYTFTKYWLGWVRQAPGQGLEWMGDIYPGYDYTHYNEKFKDRVTLTTDTSTSTAYMELRSLRSDDTAVYYCARSDGSSTYWGQGTLVTVSS VL: DIQMTQSPSSLSASVGDRVTITCRASQDISQYLNWYQQKPGKAPKLLIYYTSRLQSGVPSRFSGSGSGTDFTLTISSLQPEDFATYFCQQGNTWPPTFGQGTKLEIKRTVAAPSVFIFPPDVLMTQTPLSLPVTPGEPASISCTSSQNIVHSNGNTYLEWYLQKPGQSPQLLIYKVSNRFSGVPDRFSGSGSGTDFTLKISRVEAEDVGVYYCFQVSHVPYTFGGGTKVEIKR |
| – | 2 | DVD2797 (bispecific antibody, IgG1) VH: EVQLVQSGAEVKKPGASVKVSCKASGYTFANYGIIWVRQAPGQGLEWMGWINTYTGKPTYAQKFQGRVTMTTDTSTSTAYMELSSLRSEDTAVYYCARKLFTTMDVTDNAMDYWGQGTTVTVSSASTKGPSVFPLAPEVQLVQSGAEVKKPGASVKVSCKASGYTFTKYWLGWVRQAPGQGLEWMGDIYPGYDYTHYNEKFKDRVTLTTDTSTSTAYMELRSLRSDDTAVYYCARSDGSSTYWGQGTLVTVSS VL: DIQMTQSPSSLSASVGDRVTITCRASQDISQYLNWYQQKPGKAPKLLIYYTSRLQSGVPSRFSGSGSGTDFTLTISSLQPEDFATYFCQQGNTWPPTFGQGTKLEIKRTVAAPDVLMTQTPLSLPVTPGEPASISCTSSQNIVHSNGNTYLEWYLQKPGQSPQLLIYKVSNRFSGVPDRFSGSGSGTDFTLKISRVEAEDVGVYYCFQVSHVPYTFGGGTKVEIKR |
| – | 3 | DVD2747 (bispecific antibody, IgG1) VH: EVQLVESGGGLVQPGGSLRLSCAASGFTFSNYGVEWVRQAPGKGLEWVSGIWADGSTHYADTVKSRFTISRDNSKNTLYLQMNSLRAEDTAVYYCAREWQHGPVAYWGQGTLVTVSSASTKGPSVFPLAPEVQLVQSGAEVKKPGASVKVSCKASGYTFTKYWLGWVRQAPGQGLEWMGDIYPGYDYTHYNEKFKDRVTLTTDTSTSTAYMELRSLRSDDTAVYYCARSDGSSTYWGQGTLVTVSS VL: DIQMTQSPSSLSASVGDRVTITCKASQLVSSAVAWYQQKPGKAPKLLIYWASTLHTGVPSRFSGSGSGTDFTLTISSLQPEDFATYYCQQHYRTPFTFGQGTKLEIKRTVAAPDVLMTQTPLSLPVTPGEPASISCTSSQNIVHSNGNTYLEWYLQKPGQSPQLLIYKVSNRFSGVPDRFSGSGSGTDFTLKISRVEAEDVGVYYCFQVSHVPYTFGGGTKVEIKR |
| – | 6 | DVD2793 (bispecific antibody, IgG1) VH: EVQLVQSGAEVKKPGASVKVSCKASGYTFANYGIIWVRQAPGQGLEWMGWINTYTGKPTYAQKFQGRVTMTTDTSTSTAYMELSSLRSEDTAVYYCARKLFTTMDVTDNAMDYWGQGTTVTVSSGGGGSGGGGSEVQLVQSGAEVKKPGASVKVSCKASGYTFTKYWLGWVRQAPGQGLEWMGDIYPGYDYTHYNEKFKDRVTLTTDTSTSTAYMELRSLRSDDTAVYYCARSDGSSTYWGQGTLVTVSS VL: DIQMTQSPSSLSASVGDRVTITCRASQDISQYLNWYQQKPGKAPKLLIYYTSRLQSGVPSRFSGSGSGTDFTLTISSLQPEDFATYFCQQGNTWPPTFGQGTKLEIKRGGSGGGGSGDVLMTQTPLSLPVTPGEPASISCTSSQNIVHSNGNTYLEWYLQKPGQSPQLLIYKVSNRFSGVPDRFSGSGSGTDFTLKISRVEAEDVGVYYCFQVSHVPYTFGGGTKVEIKR |
| 2880 | – | DVD2748 (bispecific antibody, IgG1) VH: EVQLVQSGAEVKKPGASVKVSCKASGYTFTKYWLGWVRQAPGQGLEWMGDIYPGYDYTHYNEKFKDRVTLTTDTSTSTAYMELRSLRSDDTAVYYCARSDGSSTYWGQGTLVTVSSGGGGSGGGGSEVQLVESGGGLVQPGGSLRLSCAASGFTFSNYGVEWVRQAPGKGLEWVSGIWADGSTHYADTVKSRFTISRDNSKNTLYLQMNSLRAEDTAVYYCAREWQHGPVAYWGQGTLVTVSS VL: DVLMTQTPLSLPVTPGEPASISCTSSQNIVHSNGNTYLEWYLQKPGQSPQLLIYKVSNRFSGVPDRFSGSGSGTDFTLKISRVEAEDVGVYYCFQVSHVPYTFGGGTKVEIKRGGSGGGGSGDIQMTQSPSSLSASVGDRVTITCKASQLVSSAVAWYQQKPGKAPKLLIYWASTLHTGVPSRFSGSGSGTDFTLTISSLQPEDFATYYCQQHYRTPFTFGQGTKLEIKR |
